Biological target: T1, FLAG-ubiquitin, recombinant (UniProt P0CG47 1-76)
T1 construct: ubiquitin, the cut product of a ubiquitin precursor; source: bought: Boston Biochem
Experiment: SPR; Biacore 3000, 25°C; FLAG-ubiquitin immobilised on CM-5 chip by amine cross-linking; increasing amounts of GST-ING1 injected; blank reference subtracted; three experiments; steady-state affinity and kinetic data
Conditions: both partners purified

B1: GST-ING1b, full length, recombinant (natural protein, human, UniProt Q9UK53-2 1-279, looked up)
chain: MLSPANGEQLHLVNYVEDYLDSIESLPFDLQRNVSLMREIDAKYQEILKELDECYERFSRETDGAQKRRMLHCVQRALIRSQELGDEKIQIVSQMVELVENRTRQVDSHVELFEAQQELGDTAGNSGKAGADRPKGEAAAQADKPNSKRSRRQRNNENRENASSNHDHDDGASGTPKEKKAKTSKKKKRSKAKAEREASPADLPIDPNEPTYCLCNQVSYGEMIGCDNDECPIEWFHFSCVGLNHKPKGKWYCPKCRGENEKTMDKALEKSKKERAYNR
notes: ING1 isoform p33ING1b, full length
- Kd: ~100 nM

From PMC3120833, “The p53 Tumor Suppressor Is Stabilized by Inhibitor of Growth 1 (ING1) by Blocking Polyubiquitination” (PLoS ONE, 2011)
